{"source": "paper PMC4618611", "about": "“IscR of Rhodobacter sphaeroides functions as repressor of genes for iron-sulfur metabolism and represents a new type of iron-sulfur-binding protein” (MicrobiologyOpen, 2015)", "proteins": {"B1": {"name": "IscR of Rhodobacter sphaeroides (His-tagged recombinant IscR) (natural protein, UniProt Q3J0R9 1-155, looked up)", "chain": "MKLSTKGRYAMVALVDLALAQKSGNELVSLAEVSKRQDISLPYLEQLFVKLRRAGLVEAVRGPGGGYKLARPAESIRVSEIMEAVEETVNAMHTGAGASGGVSGSRAQSLTNRLWEGLSAHVYVFLHQTRLSDIIKNEMRPCPAVPALFRVVDED", "notes": "IscR, Rhodobacter sphaeroides 2.4.1, locus RSP_0443 (KEGG), 155 amino acid residues; the coding region of iscR was amplified and cloned into pQE30; also called His-tagged IscR; RSP_0443; source: E. coli M15 (pQE30::iscR), overexpressed, purified (Ni-NTA)"}}, "target": "the molecule itself", "assay": "SEC; gel filtration of the purified protein on a Superdex 200 16/60 column; aerobic conditions; data not shown", "note": "Several values for one entry are separate records, joined by “and”; a condition that tells them apart may be missing. Equal entries are not always repeated.", "data": [{"protein": "B1", "values": [{"measurement": "stoichiometry N", "value": "2 and 4"}]}]}
